Measurements taken from patent US20060257938A1, “Method of screening for drugs that block ligand binding to a lipid binding protein” (priority 2005, published 2006).
Changes are numbered by the printed parent chain.

B1: 51K1, 72A (protein, listed as Rattus norvegicus)
chain: AFDGTWKVDRNENYEKFMEKMGINVVKRKLGAHDNLKLTITQEGNKFTVKKSSNFRNIDVVFELGVDFAYSAADGTELTGTWTMEGNKLVGKFKRVDNGKELIAVREISGNELIQTYTYEGVEAKRIFKKE
modifications: PEPTIDE (1)...(131) wild-type rat intestinal fatty acid binding protein
B2: 51N1, 72A (protein, listed as Rattus norvegicus)
chain: B1 chain with K51N
modifications: PEPTIDE (1)...(131) wild-type rat intestinal fatty acid binding protein
B3: 51R1, 72A (protein, listed as Rattus norvegicus)
chain: B1 chain with K51R
modifications: PEPTIDE (1)...(131) wild-type rat intestinal fatty acid binding protein
B4: 51V3, 72A (protein, listed as Rattus norvegicus)
chain: B1 chain with K51V
modifications: PEPTIDE (1)...(131) wild-type rat intestinal fatty acid binding protein
B5: 51L3, 72A (protein, listed as Rattus norvegicus)
chain: B1 chain with K51L
modifications: PEPTIDE (1)...(131) wild-type rat intestinal fatty acid binding protein
B6: 51Q1, 72A (protein, listed as Rattus norvegicus)
chain: B1 chain with K51Q
modifications: PEPTIDE (1)...(131) wild-type rat intestinal fatty acid binding protein
B7: 51P3, 72A (protein, listed as Rattus norvegicus)
chain: B1 chain with K51P
modifications: PEPTIDE (1)...(131) wild-type rat intestinal fatty acid binding protein
B8: 51T3, 72A (protein, listed as Rattus norvegicus)
chain: B1 chain with K51T
modifications: PEPTIDE (1)...(131) wild-type rat intestinal fatty acid binding protein
B9: 51S1, 72A (protein, listed as Rattus norvegicus)
chain: B1 chain with K51S
modifications: PEPTIDE (1)...(131) wild-type rat intestinal fatty acid binding protein

experiment: Probe fluorescence ratio response to linolenic acid relative to ADIFAB2; format: binding; details: response relative to ADIFAB2
Method in brief: (§1)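 Fluorescently labeled rat intestinal FABP variants were read at two emission wavelengths, near the unbound maximum (about 420 to 480 nm) and the FFA-bound maximum (about 495 to 580 nm). R = Fλ1/Fλ2 after subtracting probe-free intensity; ΔR = R+agent − R0, normalized to ADIFAB2 (rI-FABP-L72A).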

| Molecule | DR/DR LNA |
| --- | --- |
| B1 | 1.02 |
| B2 | 1.39 |
| B3 | 1.56 |
| B4 | 1.53 |
| B5 | 1.66 |
| B6 | 1.65 |
| B7 | 1.48 |
| B8 | 1.60 |
| B9 | 1.66 |

experiment: Probe fluorescence ratio response to linoleic acid relative to ADIFAB2; format: binding; details: response relative to ADIFAB2
Method in brief: as §1

| Molecule | DR/DR LA |
| --- | --- |
| B1 | −0.01 |
| B2 | 1.46 |
| B3 | 1.56 |
| B4 | 1.64 |
| B5 | 1.65 |
| B6 | 1.63 |
| B7 | 1.42 |
| B8 | 1.65 |
| B9 | 1.78 |

experiment: Probe fluorescence ratio response to oleic acid relative to ADIFAB2; format: binding; details: response relative to ADIFAB2
Method in brief: as §1

| Molecule | DR/DR OA |
| --- | --- |
| B1 | 1.01 |
| B2 | 1.26 |
| B3 | 1.35 |
| B4 | 1.43 |
| B5 | 1.45 |
| B6 | 1.43 |
| B7 | 1.21 |
| B8 | 1.44 |
| B9 | 1.61 |

experiment: Probe fluorescence ratio response to arachidonic acid relative to ADIFAB2; format: binding; details: Arachidonic acid; response relative to ADIFAB2
Method in brief: as §1

| Molecule | DR/DR AA |
| --- | --- |
| B1 | 1.00 |
| B2 | 1.38 |
| B3 | 1.50 |
| B4 | 1.52 |
| B5 | 1.64 |
| B6 | 1.56 |
| B7 | 1.42 |
| B8 | 1.60 |
| B9 | 1.64 |

experiment: Probe fluorescence ratio response to palmitic acid relative to ADIFAB2; format: binding; details: response relative to ADIFAB2
Method in brief: as §1

| Molecule | DR/DR PA |
| --- | --- |
| B1 | 0.56 |
| B2 | 0.73 |
| B3 | 0.73 |
| B4 | 0.73 |
| B5 | 0.76 |
| B6 | 0.73 |
| B7 | 0.72 |
| B8 | 0.71 |
| B9 | 0.80 |
